Measured values taken from the RNAGym collection of RNA variant scans (doi:10.7554/elife.90254).

B1: LINE1-full (parent)
chain: UACGUAGGUGGUUUUCCCCUGAUAGUGCUAAGGGGGCCUGGAAGUUUGGACUGGGCAGAGCUCAACACAGCGUGGCAAAGUGGCUGUGGCUAGACUGCCUCUCUGGAUUCCUCGUCACUCAGCAGGGCAUCUCUGAGAGAAAUGCC

Variants of: B1
Assay: self-cleavage, relative activity (ratio to wild type); higher = more cleavage; in vitro, sequencing; the parent is a self-cleaving ribozyme

Going from U12G A107U to C99U U143A, the self-cleavage falls from 0.98 to 0.39.

Compared with U102A U109A, A43U A57G is lower in self-cleavage: 1.03 for the first, 0.89 for the second.

First: G54A G88A
Second: U20C U130A
The self-cleavage of the first is lower: 0.08 for the first, 1.65 for the second.

Compared with U87A A138U, C19U U134C is higher in self-cleavage: 0.03 for the first, 1.09 for the second.

Compared with G40A U132C, G44C A64G is lower in self-cleavage: 1.03 for the first, 0.24 for the second.

Going from A117G U132C to U73A A129G, the self-cleavage falls from 1.8 to 1.67.

First: U47A C118A
Second: G93A A94G
The self-cleavage of the first is higher: 0.95 for the first, 0.09 for the second.

Compared with G35C U62C, C3U U12C is higher in self-cleavage: 0.06 for the first, 0.57 for the second.

Compared with C111U, U14G C18A is lower in self-cleavage: 1.38 for the first, 1.09 for the second.

Going from G54U U119C to U9G U132A, the self-cleavage falls from 1.34 to 0.59.

First: U13C U20G
Second: C37U G55A
The self-cleavage of the first is higher: 0.69 for the first, 0.12 for the second.

Going from U115C A121G to A24U G86U, the self-cleavage falls from 1.42 to 0.13.

First: C116A A142C
Second: A57U G127A
The self-cleavage of the first is higher: 1.54 for the first, 0.1 for the second.

First: U9C U87A
Second: U14C U96A
The self-cleavage of the first is higher: 0.2 for the first, 0.13 for the second.

First: U13A G137A
Second: U13A C71G
The self-cleavage of the first is higher: 1.13 for the first, 0.2 for the second.

Compared with G25A, U12C A92G is lower in self-cleavage: 1.21 for the first, 0.09 for the second.

Going from U20G A64U to U1C A124U, the self-cleavage rises from 0.71 to 1.07.

Compared with A22C A30G, C116U A140U is lower in self-cleavage: 1.18 for the first, 0.71 for the second.

First: C71U
Second: U102A C116U
The self-cleavage of the first is lower: 0.86 for the first, 0.97 for the second.

Going from A2G A117U to U87A A141G, the self-cleavage falls from 1 to 0.06.

Compared with A107U G127A, A92U C146G is lower in self-cleavage: 0.93 for the first, 0.41 for the second.

Going from G25U A78G to A67G U96A, the self-cleavage falls from 0.96 to 0.06.

Compared with U39C U52A, U73A A79C is higher in self-cleavage: 1.4 for the first, 2.16 for the second.

Compared with U14C C110A, U12C A141U is lower in self-cleavage: 1.33 for the first, 0.87 for the second.

Compared with A2U U52C, C63A U100C is lower in self-cleavage: 0.67 for the first, 0.04 for the second.

First: A77U U143A
Second: A22G G27A
The self-cleavage of the first is higher: 1.18 for the first, 1 for the second.

Compared with U12A G35A, G55C C76A is lower in self-cleavage: 0.98 for the first, 0.1 for the second.

Compared with U39A G49A, U1C A59G is lower in self-cleavage: 1.06 for the first, 0.1 for the second.

Going from G8A A67C to G41U U132A, the self-cleavage rises from 0 to 1.35.

First: U20A G58C
Second: A6U G53A
The self-cleavage of the first is lower: 0.08 for the first, 0.9 for the second.

Compared with A69C, G60A U73C is lower in self-cleavage: 0.07 for the first, 0.02 for the second.

First: A31C C71A
Second: U108C A124C
The self-cleavage of the first is lower: 0.19 for the first, 1.57 for the second.

First: U104C A136U
Second: U47A A94G
The self-cleavage of the first is higher: 1.91 for the first, 0.23 for the second.

First: U46C C128U
Second: A77U G126A
The self-cleavage of the first is lower: 0.6 for the first, 1.46 for the second.

Going from U12A G127A to G75A G135A, the self-cleavage rises from 0.66 to 1.18.

Compared with G72A U85A, U12A C123U is higher in self-cleavage: 0.07 for the first, 1.38 for the second.

Compared with U112C G144A, U45C U73A is higher in self-cleavage: 1.58 for the first, 1.68 for the second.

Going from U102A A124C to G48A U132C, the self-cleavage falls from 1.98 to 1.29.

First: A69G U132C
Second: A30G A79U
The self-cleavage of the first is higher: 0.71 for the first, 0.5 for the second.

Compared with U81A U112A, A77G A92U is lower in self-cleavage: 1.7 for the first, 1.11 for the second.

Compared with G54A A136U, U91C C133A is higher in self-cleavage: 0.67 for the first, 0.74 for the second.

Going from C37G U134C to C38U A136G, the self-cleavage rises from 0.66 to 1.89.

Compared with U12G U115A, G54A A121G is lower in self-cleavage: 0.75 for the first, 0.51 for the second.

Compared with U9G U134C, U104C G114A is higher in self-cleavage: 0.71 for the first, 1.59 for the second.

Compared with C76U C99U, A59C A142G is lower in self-cleavage: 0.99 for the first, 0.57 for the second.

First: U47G U91C
Second: U45C A77C
The self-cleavage of the first is lower: 0.1 for the first, 1.15 for the second.

First: A43G C99U
Second: U15C U109G
The self-cleavage of the first is higher: 1.1 for the first, 0.84 for the second.

Compared with G32A A141G, C17U G72A is lower in self-cleavage: 1.95 for the first, 1.05 for the second.

First: A57G U62A
Second: A67U A136G
The self-cleavage of the first is lower: 0.05 for the first, 0.2 for the second.

Going from U14C A142G to A77U A124G, the self-cleavage falls from 1.34 to 0.79.

Going from A24G G126A to U112C C131U, the self-cleavage rises from 1.09 to 1.87.

Going from A43U U96C to G40U U132A, the self-cleavage rises from 0.1 to 1.31.

First: U9C G41A
Second: A65U G125A
The self-cleavage of the first is higher: 1.06 for the first, 0.21 for the second.

Compared with A67U U81A, G33A A136G is higher in self-cleavage: 0.07 for the first, 1.35 for the second.

Compared with G83A A94U, A138G A140G is higher in self-cleavage: 0.24 for the first, 1.52 for the second.

First: A24C U109A
Second: U9C A121U
The self-cleavage of the first is higher: 2.55 for the first, 1.32 for the second.

Compared with A50G A69U, G34U U104C is higher in self-cleavage: 0.1 for the first, 1.34 for the second.

Compared with A2U U143A, U39G A140G is higher in self-cleavage: 1 for the first, 1.31 for the second.

Compared with U108A U115C, A67G G93U is lower in self-cleavage: 1.52 for the first, 0.11 for the second.

First: A69G C123G
Second: G49U U96A
The self-cleavage of the first is higher: 0.84 for the first, 0.02 for the second.

Compared with U26A U29C, A50G A94G is lower in self-cleavage: 1.44 for the first, 0.32 for the second.

Compared with U73A A124C, C131U U134A is lower in self-cleavage: 2.02 for the first, 1.65 for the second.

Going from U13A A64U to A30U A77G, the self-cleavage rises from 0.25 to 1.25.

Going from A77U C146A to U96C A117G, the self-cleavage falls from 1.23 to 0.2.

Compared with U85C C98U, G25A A141G is higher in self-cleavage: 0.01 for the first, 0.96 for the second.

Compared with G40A U62C, C18U A117G is higher in self-cleavage: 0.04 for the first, 1.72 for the second.

Going from G80A to A69G U134C, the self-cleavage falls from 1.93 to 0.44.

First: U91G A138G
Second: A22U A64G
The self-cleavage of the first is lower: 0 for the first, 0.3 for the second.

Compared with A117C A141G, C28A C131G is lower in self-cleavage: 2.57 for the first, 0.33 for the second.

First: U81C G105A
Second: G53U U112C
The self-cleavage of the first is lower: 1.06 for the first, 1.31 for the second.

Compared with C17U U26C, U13C A94G is lower in self-cleavage: 0.6 for the first, 0.33 for the second.

Going from U46A U143C to C61U U134G, the self-cleavage falls from 1.38 to 0.

Compared with G8A G97A, A59G A92U is lower in self-cleavage: 0.41 for the first, 0.1 for the second.

First: U85C G127C
Second: C38U U52C
The self-cleavage of the first is lower: 0.24 for the first, 1.44 for the second.

Going from U102C A141G to U14G G36U, the self-cleavage rises from 1.39 to 1.51.

Compared with A140G A142U, G55U A121G is lower in self-cleavage: 0.84 for the first, 0.37 for the second.

First: U62A A77G
Second: U119A A141U
The self-cleavage of the first is lower: 0.07 for the first, 1.29 for the second.

Compared with A50C U115C, G70A U73A is lower in self-cleavage: 1.84 for the first, 0.09 for the second.

First: A50G G127A
Second: G127U A141G
The self-cleavage of the first is lower: 0.68 for the first, 1.45 for the second.

First: A64G C84A
Second: A79G G83A
The self-cleavage of the first is lower: 0.05 for the first, 1.03 for the second.

Compared with G54A G105U, U52A U112A is higher in self-cleavage: 0.7 for the first, 0.8 for the second.

Going from C19U U52A to G8A U119C, the self-cleavage falls from 1.28 to 1.1.

First: A30U U87C
Second: G135A A138U
The self-cleavage of the first is lower: 0.23 for the first, 1.01 for the second.

Variant A79G C98A has a self-cleavage of 0.2.
